The values that follow are results of earlier work, collected in paper PMC2790341.

In data set [1] the target is VEGFR1 (Homo sapiens) (UniProt P17948).
Data set [2] has as its target VEGFR2 (Homo sapiens) (UniProt P35968).
The target of data set [3] is NRP1 (Homo sapiens) (UniProt O14786).
UniProt O14786, sequence (O14786 22-923): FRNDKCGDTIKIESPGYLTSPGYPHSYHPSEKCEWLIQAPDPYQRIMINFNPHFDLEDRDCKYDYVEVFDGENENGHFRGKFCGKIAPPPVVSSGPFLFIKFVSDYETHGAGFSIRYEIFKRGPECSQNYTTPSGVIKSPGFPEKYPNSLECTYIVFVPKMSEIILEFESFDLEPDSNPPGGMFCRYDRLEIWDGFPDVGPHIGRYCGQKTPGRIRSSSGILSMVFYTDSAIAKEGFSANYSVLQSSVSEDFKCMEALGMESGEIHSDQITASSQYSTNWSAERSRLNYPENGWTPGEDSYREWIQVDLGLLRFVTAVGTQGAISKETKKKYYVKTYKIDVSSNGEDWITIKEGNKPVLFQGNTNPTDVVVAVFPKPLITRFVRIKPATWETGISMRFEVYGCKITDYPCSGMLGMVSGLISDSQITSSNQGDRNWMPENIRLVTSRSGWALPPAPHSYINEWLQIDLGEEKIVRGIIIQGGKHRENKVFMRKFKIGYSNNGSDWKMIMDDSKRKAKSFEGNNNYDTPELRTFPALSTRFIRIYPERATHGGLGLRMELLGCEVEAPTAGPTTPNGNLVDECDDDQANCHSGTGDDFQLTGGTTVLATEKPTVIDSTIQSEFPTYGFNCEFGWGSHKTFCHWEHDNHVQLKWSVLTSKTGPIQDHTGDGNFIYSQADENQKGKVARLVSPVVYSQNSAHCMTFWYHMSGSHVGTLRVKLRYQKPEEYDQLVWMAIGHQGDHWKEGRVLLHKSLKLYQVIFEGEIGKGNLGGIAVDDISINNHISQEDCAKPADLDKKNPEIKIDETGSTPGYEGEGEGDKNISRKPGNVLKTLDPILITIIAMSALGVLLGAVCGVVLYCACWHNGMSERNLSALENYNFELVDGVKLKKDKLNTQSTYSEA

UniProt P35968, sequence (P35968 20-1356): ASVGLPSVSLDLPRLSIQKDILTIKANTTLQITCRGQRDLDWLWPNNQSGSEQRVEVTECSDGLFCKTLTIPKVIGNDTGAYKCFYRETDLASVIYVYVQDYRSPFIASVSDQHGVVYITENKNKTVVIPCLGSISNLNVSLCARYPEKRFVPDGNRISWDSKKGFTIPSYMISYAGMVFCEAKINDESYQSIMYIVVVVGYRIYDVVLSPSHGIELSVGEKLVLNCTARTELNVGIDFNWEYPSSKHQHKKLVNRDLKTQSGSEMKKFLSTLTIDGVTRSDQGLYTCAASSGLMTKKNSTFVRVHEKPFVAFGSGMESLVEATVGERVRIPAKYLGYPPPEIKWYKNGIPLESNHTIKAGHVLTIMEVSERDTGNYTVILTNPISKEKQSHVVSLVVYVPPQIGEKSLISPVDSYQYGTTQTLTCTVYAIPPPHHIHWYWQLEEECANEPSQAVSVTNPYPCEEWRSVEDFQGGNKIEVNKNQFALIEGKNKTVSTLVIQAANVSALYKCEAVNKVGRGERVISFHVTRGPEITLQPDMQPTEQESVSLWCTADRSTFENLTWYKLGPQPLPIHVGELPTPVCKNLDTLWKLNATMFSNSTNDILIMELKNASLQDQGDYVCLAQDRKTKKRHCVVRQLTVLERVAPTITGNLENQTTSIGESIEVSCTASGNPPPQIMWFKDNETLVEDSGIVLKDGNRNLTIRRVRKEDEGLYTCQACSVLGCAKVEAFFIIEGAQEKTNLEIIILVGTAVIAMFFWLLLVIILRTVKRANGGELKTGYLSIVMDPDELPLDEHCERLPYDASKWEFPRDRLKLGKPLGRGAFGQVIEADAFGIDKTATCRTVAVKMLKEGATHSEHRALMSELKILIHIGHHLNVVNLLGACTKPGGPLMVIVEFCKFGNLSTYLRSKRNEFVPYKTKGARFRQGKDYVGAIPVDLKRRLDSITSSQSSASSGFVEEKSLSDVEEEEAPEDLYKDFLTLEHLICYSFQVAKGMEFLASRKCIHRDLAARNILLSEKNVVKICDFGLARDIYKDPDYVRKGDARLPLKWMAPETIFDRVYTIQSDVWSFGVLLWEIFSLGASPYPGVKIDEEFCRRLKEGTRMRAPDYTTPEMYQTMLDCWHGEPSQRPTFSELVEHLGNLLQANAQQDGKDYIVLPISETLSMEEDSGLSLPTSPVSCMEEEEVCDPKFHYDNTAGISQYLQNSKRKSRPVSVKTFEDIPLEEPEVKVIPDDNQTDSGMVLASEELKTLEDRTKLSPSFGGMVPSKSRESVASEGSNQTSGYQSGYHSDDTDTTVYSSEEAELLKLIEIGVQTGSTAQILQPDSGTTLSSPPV
UniProt P17948, sequence (P17948 27-1338): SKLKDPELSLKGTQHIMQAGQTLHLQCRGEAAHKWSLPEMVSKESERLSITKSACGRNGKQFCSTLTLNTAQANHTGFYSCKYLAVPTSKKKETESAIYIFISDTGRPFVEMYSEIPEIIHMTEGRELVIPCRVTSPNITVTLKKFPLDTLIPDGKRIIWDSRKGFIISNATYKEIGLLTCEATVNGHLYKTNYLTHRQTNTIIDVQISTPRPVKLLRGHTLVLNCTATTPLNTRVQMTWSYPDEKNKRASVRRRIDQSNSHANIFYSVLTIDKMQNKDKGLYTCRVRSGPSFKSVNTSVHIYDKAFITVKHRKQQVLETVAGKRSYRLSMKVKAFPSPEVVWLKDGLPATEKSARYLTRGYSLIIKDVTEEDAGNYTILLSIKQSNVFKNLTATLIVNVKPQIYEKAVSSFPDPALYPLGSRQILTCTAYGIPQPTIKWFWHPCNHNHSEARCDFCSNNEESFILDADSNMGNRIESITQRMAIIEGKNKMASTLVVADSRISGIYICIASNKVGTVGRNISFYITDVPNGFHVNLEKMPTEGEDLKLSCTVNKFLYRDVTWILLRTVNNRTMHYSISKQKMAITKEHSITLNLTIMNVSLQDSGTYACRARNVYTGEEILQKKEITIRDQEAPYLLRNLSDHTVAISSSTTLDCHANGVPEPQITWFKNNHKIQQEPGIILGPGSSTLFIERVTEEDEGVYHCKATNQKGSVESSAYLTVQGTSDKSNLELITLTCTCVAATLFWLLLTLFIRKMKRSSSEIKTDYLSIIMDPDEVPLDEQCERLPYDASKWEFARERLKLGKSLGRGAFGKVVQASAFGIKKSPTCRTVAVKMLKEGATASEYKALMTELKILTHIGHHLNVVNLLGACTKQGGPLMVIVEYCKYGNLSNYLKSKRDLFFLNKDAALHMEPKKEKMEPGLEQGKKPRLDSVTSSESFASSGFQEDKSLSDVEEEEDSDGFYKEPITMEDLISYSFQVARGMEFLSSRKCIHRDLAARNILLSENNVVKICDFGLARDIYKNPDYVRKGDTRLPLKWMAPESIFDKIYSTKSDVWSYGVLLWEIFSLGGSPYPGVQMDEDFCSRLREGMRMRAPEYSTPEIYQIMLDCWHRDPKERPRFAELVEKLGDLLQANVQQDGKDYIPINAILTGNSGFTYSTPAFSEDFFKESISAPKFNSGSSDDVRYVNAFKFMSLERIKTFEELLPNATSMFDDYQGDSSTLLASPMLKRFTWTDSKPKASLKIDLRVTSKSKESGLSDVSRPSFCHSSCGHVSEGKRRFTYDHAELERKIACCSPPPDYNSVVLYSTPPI

Regarding VEGF (from UniProt P15692), the figures for the equilibrium dissociation constant (Kd) in data set [1] and in data set [2] were 0.033 nM and 0.1 nM, respectively.

As for VEGF165 (from UniProt P15692), the Kd (commonly the free concentration of one partner at which half of the binding sites on the other are occupied at equilibrium, for simple one-to-one binding) in data set [3] is 0.312 nM.
